Laboratory results as given in US20240182549A1, “PEPTIDES AND ANTIBODY FUSIONS THAT BIND TO SARS-COV-2 AND METHODS OF USING SAME” (priority 2021, published 2024).
Ends that are not written are not given here.

How the values were obtained:
S protein ECD [1] = target: T1, S protein ECD (Severe acute respiratory syndrome coronavirus 2, UniProt P0DTC2, K986P/R682S/R683S/R685S/V987P)
S protein ECD [2] = target: T1, S protein ECD; remark: listed apart in the source
SARS-CoV-2 S protein = SARS-CoV-2 S protein (Severe acute respiratory syndrome coronavirus 2, UniProt P0DTC2, K986P/R682S/R683S/R685S/V987P)

p16 (DFDFAENWMEQLKVML; not fully specified)
peptide-phage binding to ECD blocked by NTD-binding antibodies (S protein ECD [1]): blocked
peptide-phage binding to ECD blocked by RBD-binding antibodies (S protein ECD [1]): not by those that bound to the ACE2-binding site of the RBD
binding to S protein ectodomain (in words) (S protein ECD [2]): did not exhibit detectable binding
affinity improvement over 15033 (SARS-CoV-2 S protein): significant affinity improvement

p102 (ECWEWSYQLQEWSPCP; not fully specified; cysteine pairing not given here)
peptide-phage binding to ECD blocked by NTD-binding antibodies (S protein ECD [1]): not by those that bound to the NTD
peptide-phage binding to ECD blocked by RBD-binding antibodies (S protein ECD [1]): blocked
